Experimental data published in patent publication US20230416410A1 (ZOETIS SERVICES, published 2023).

Molecular target: T1, CTLA4 Fc bIgG1aWinSS (canine; bovine, UniProt Q9XSI1 36-161, limits assumed)
T1 construct: No linker
T1 sequence: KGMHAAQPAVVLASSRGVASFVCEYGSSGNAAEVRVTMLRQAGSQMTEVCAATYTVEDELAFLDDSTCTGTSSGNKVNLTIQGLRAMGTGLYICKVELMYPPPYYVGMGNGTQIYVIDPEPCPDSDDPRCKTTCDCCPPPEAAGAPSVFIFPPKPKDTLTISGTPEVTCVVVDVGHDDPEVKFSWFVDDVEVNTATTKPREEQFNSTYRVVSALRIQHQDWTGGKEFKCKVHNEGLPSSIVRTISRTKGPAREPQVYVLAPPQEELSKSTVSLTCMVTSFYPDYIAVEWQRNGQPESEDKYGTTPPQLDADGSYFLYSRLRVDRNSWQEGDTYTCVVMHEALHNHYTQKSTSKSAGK
Experiment: SPR Biacore, biotinylated receptor on SA sensor, pH 7.4, 15 C

Kd: 52.5 nM
B1: recombinant bovine FcgR2 (receptor)
chain: KPDLPKAVVTIQPAWINVLREDHVTLTCQGTSFSAGNLTTWFHNGSSIHTQKQPSYSFRAGSNDSGSYRCQREQTSLSDPVHLDVISDWLLLQTPSLVFQEGEPIMLRCHSWRNQPLNKITFYQDRKSKIFSYQRTNFSIPRANLSHSGQYHCTAFIGKMLHSSQPVNITVQESSSSGPSSMTHHHHHHAGLNDIFEAQKIEWHE
modifications: biotin on the BAP tag (BirA)
notes: also called bFcgR2; bFcgRII
